Assay results published in patent publication US20100129369A1 (Eli Lilly, published 2010).

What was measured:
human c-Met [1] = target: T1, human c-Met (human, UniProt P08581 25-1390); experiment: cell-based or functional assay
human c-Met ECD-Fc-Flis [2] = target: T2, human c-Met ECD-Fc-Flis (human); experiment: HGF-blocking ELISA: HGF signal on coated c-Met ECD-Fc-Flis; Ab 0.48 ng/mL
T2 construct: c-Met ECD fused to Fc with flag- and His-tag at the C-terminus; also called human c-Met extracellular domain (ECD)-Fc-Flis fusion; human c-Met-Flis-Fc ECD
Procedure: (§1) Wells of 96-well EIA/RIA high binding plates (Costar, #2592) are coated with 100 μL of human c-Met ECD-Fc-Flis (SEQ ID NO:72) (2 μg/mL) in Dulbecco's phosphate buffered saline (DPBS) overnight at room temperature; washed four times with wash buffer (Tris-buffered saline, pH 8.0, with 0.05% (v/v) polysorbate 20 (TWEEN®-20) (TBS-T) (BioFX Labs, # WSHW-1000-01) in a plate washer; blocked by adding 300 μL of blocking buffer (TBS-T plus 1% (w/v) bovine serum albumin (BSA) (Jackson Immuno, #001-000-162); and incubating for 60 min. at 37° C. Blocking buffer is then removed from the wells and 50 μL of antibodies in blocking buffer at final concentrations as indicated in Table 7 are added into each well, respectively. […] The plates with c-Met antibodies are incubated for 90 min. at 37° C. […] The wells are then washed four times with TBS-T in a plate washer. […] The plates are incubated for 90 min. at room temperature. The wells are again washed four times with TBS-T in a plate washer. 100 μL of a 1:200 dilution of streptavidin-horseradish peroxidase (HRP) (R&D Systems, DY998) in blocking buffer are added to each well. The plates are incubated for 30 min. at room temperature. The wells are washed four times with TBS-T in a plate washer. 100 μL/well of substrate solution (BioFx, #TMBW-1000-01) are then added, and the plates are incubated for 10 min. at room temperature. To stop the reaction, 100 μL/well of stop solution (BioFx, # LSTP-1000-01) are added. The samples are read at a wavelength of 450-570 nm on a microplate reader (Spectra, MAX 190) and no background is subtracted.

human c-Met [3] = target: T1, human c-Met; experiment: cell-based or functional assay; remark: listed apart in the source
human c-Met ECD-Fc-Flis [4] = target: T2, human c-Met ECD-Fc-Flis; experiment: HGF-blocking ELISA: HGF signal on coated c-Met ECD-Fc-Flis; Ab 1.91 ng/mL
Procedure: as §1

human c-Met ECD-Fc-Flis [5] = target: T2, human c-Met ECD-Fc-Flis; experiment: HGF-blocking ELISA: HGF signal on coated c-Met ECD-Fc-Flis; Ab 7812.50 ng/mL
Procedure: as §1

human c-Met ECD-Fc-Flis [6] = target: T2, human c-Met ECD-Fc-Flis; experiment: HGF-blocking ELISA: HGF signal on coated c-Met ECD-Fc-Flis; Ab 31250.00 ng/mL
Procedure: as §1

human c-Met ECD-Fc-Flis [7] = target: T2, human c-Met ECD-Fc-Flis; experiment: HGF-blocking ELISA: HGF signal on coated c-Met ECD-Fc-Flis; Ab 488.28 ng/mL
Procedure: as §1

human c-Met ECD-Fc-Flis [8] = target: T2, human c-Met ECD-Fc-Flis; experiment: HGF-blocking ELISA: HGF signal on coated c-Met ECD-Fc-Flis; Ab 122.07 ng/mL
Procedure: as §1

human c-Met ECD-Fc-Flis [9] = target: T2, human c-Met ECD-Fc-Flis; experiment: HGF-blocking ELISA: HGF signal on coated c-Met ECD-Fc-Flis; Ab 0.00 ng/mL (HGF only)
Procedure: as §1

human c-Met ECD-Fc-Flis [10] = target: T2, human c-Met ECD-Fc-Flis; experiment: HGF-blocking ELISA: HGF signal on coated c-Met ECD-Fc-Flis; Ab 1953.13 ng/mL
Procedure: as §1

human c-Met ECD-Fc-Flis [11] = target: T2, human c-Met ECD-Fc-Flis; experiment: HGF-blocking ELISA: HGF signal on coated c-Met ECD-Fc-Flis; Ab 30.52 ng/mL
Procedure: as §1

human c-Met [12] = target: T1, human c-Met; experiment: cell-based or functional assay; remark: listed apart in the source
human c-Met ECD-Fc-Flis [13] = target: T2, human c-Met ECD-Fc-Flis; experiment: HGF-blocking ELISA: HGF signal on coated c-Met ECD-Fc-Flis; Ab 7.63 ng/mL
Procedure: as §1

human c-Met ECD-Fc-Flis [14] = target: T2, human c-Met ECD-Fc-Flis; experiment: HGF-blocking ELISA: HGF signal on coated c-Met ECD-Fc-Flis; Ab 125000.00 ng/mL
Procedure: as §1

T1 sequence (P08581 25-1390): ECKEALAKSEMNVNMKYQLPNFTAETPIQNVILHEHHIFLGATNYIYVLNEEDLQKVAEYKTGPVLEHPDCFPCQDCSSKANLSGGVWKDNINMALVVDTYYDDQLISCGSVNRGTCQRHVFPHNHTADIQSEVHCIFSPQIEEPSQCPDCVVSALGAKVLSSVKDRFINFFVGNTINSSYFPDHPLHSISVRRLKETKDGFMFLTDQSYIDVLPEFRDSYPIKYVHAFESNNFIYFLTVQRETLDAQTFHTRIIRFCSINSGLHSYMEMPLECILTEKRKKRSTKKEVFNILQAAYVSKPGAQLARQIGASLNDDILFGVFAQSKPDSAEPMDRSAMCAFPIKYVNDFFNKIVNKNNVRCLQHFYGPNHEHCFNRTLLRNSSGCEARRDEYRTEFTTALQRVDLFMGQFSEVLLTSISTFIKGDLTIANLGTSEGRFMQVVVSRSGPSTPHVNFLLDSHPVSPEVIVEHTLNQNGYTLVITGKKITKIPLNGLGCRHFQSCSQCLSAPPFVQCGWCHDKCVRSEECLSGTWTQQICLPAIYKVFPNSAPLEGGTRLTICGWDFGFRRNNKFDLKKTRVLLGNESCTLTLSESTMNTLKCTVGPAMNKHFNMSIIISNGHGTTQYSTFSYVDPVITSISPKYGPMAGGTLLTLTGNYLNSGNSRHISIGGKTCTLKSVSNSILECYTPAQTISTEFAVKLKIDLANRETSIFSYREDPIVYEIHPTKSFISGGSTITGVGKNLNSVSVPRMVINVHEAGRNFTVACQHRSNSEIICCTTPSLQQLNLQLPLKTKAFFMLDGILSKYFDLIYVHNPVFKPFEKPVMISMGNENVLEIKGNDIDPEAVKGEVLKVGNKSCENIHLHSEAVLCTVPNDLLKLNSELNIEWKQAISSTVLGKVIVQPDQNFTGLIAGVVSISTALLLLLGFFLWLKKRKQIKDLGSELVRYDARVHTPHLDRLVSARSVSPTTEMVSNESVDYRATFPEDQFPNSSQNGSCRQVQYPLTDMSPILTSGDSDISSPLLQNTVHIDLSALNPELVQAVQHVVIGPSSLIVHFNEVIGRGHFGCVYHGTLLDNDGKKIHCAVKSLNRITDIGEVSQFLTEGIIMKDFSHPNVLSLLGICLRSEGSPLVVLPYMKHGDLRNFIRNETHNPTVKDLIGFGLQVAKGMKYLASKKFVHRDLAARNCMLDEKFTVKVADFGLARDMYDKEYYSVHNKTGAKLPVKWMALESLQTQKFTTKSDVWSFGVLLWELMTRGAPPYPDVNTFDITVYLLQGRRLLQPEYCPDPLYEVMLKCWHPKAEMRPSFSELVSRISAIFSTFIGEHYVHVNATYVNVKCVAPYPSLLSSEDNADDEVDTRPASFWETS
T2 sequence (chain, as listed by the source): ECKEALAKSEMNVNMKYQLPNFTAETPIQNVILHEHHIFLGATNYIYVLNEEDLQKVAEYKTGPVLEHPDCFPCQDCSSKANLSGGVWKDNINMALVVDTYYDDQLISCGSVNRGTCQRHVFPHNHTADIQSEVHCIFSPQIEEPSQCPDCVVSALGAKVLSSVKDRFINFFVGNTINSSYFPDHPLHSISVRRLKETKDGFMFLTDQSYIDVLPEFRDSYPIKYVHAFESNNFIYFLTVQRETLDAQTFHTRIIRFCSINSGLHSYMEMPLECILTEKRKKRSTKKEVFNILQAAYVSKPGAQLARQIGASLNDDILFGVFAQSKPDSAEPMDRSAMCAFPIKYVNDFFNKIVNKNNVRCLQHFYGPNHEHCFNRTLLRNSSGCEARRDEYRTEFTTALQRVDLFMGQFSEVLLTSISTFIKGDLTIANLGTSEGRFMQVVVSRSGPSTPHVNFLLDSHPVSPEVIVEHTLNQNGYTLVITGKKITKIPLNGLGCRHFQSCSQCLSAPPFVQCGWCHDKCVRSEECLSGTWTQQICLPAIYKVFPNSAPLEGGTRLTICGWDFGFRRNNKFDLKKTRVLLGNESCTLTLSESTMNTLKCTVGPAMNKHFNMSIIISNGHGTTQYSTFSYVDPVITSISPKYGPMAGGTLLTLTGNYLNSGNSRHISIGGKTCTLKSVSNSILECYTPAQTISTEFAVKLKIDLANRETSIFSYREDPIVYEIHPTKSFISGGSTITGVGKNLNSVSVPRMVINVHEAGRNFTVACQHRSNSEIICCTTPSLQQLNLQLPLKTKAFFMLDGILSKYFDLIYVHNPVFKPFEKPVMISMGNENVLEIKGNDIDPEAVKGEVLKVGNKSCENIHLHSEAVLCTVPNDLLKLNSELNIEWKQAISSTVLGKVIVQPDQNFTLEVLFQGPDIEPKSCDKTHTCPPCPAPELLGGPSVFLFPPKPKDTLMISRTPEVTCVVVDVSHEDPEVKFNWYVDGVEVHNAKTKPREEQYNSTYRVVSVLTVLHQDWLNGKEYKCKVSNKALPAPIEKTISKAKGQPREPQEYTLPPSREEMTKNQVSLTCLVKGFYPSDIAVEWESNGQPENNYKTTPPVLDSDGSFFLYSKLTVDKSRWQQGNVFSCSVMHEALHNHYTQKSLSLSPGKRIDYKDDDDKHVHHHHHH

% inhibition of HGF stimulated phospho-Met (ELISA, HCT116 cells), Ab 0.0032 µg/mL (human c-Met [1]) [%]	% inhibition of HGF stimulated phospho-Met (ELISA, HCT116 cells), Ab 0.016 µg/mL (human c-Met [1]) [%]	% inhibition of HGF stimulated phospho-Met (ELISA, HCT116 cells), Ab 0.08 µg/mL (human c-Met [1]) [%]	% inhibition of HGF stimulated phospho-Met (ELISA, HCT116 cells), Ab 0.4 µg/mL (human c-Met [1]) [%]	% inhibition of HGF stimulated phospho-Met (ELISA, HCT116 cells), Ab 2 µg/mL (human c-Met [1]) [%]	% inhibition of HGF stimulated phospho-Met (ELISA, HCT116 cells), Ab 10 µg/mL (human c-Met [1]) [%]	AVG A450 nm (human c-Met ECD-Fc-Flis [2]) [A450 nm]	Mean Fluorescence (c-Met left on the surface of MKN45 cells, FACS), Ab 5.00 ug/mL (human c-Met [3])	AVG A450 nm (human c-Met ECD-Fc-Flis [4]) [A450 nm]	AVG A450 nm (human c-Met ECD-Fc-Flis [5]) [A450 nm]	AVG A450 nm (human c-Met ECD-Fc-Flis [6]) [A450 nm]	AVG A450 nm (human c-Met ECD-Fc-Flis [7]) [A450 nm]	AVG A450 nm (human c-Met ECD-Fc-Flis [8]) [A450 nm]	AVG A450 nm (human c-Met ECD-Fc-Flis [9]) [A450 nm]	AVG A450 nm (human c-Met ECD-Fc-Flis [10]) [A450 nm]	AVG A450 nm (human c-Met ECD-Fc-Flis [11]) [A450 nm]	AVG CPM, 3H-thymidine incorporation in MKN45 cells, Ab 0.0 ng/mL (no antibody) (human c-Met [12]) [CPM]	AVG CPM, 3H-thymidine incorporation in MKN45 cells, Ab 0.1 ng/mL (human c-Met [12]) [CPM]	AVG CPM, 3H-thymidine incorporation in MKN45 cells, Ab 0.4 ng/mL (human c-Met [12]) [CPM]	AVG CPM, 3H-thymidine incorporation in MKN45 cells, Ab 2.6 ng/mL (human c-Met [12]) [CPM]	Binder	also measured
9.48	2.53	-3.24	15.9	31.4	16.7	2.15	56.4	1.98	1.12	1.17	1.29	1.69	2.43	1.23	2.07	44200	44600	45300	49900	D11-S17Y (antibody, human IgG2, kappa, V domains shown, Human engineered IgG2 kappa c-Met antibody; also called D11-S17Y IgG2) VH: QVQLVQSGAEVKKPGSSVKVSCKASGYTFTSRYIHWVRQAPGQGLEWMGWIYPVTGDTYYNEKFKGRVTITADKSTSTAYMELSSLRSEDTAVYYCARGYGAFYYWGQGTLVTVSS VL: EIVLTQSPGTLSLSPGERATLSCSVSSSISSTNLHWYQQKPGQAPRLLIYGTSYLASGIPDRFSGSGSGTDFTLTISRLEPEDFAVYYCQQWSSYPYSFGQGTKLEIKR	AVG CPM, 3H-thymidine incorporation in MKN45 cells, Ab 15.4 ng/mL (human c-Met [12]): 39700 CPM; AVG CPM, 3H-thymidine incorporation in MKN45 cells, Ab 92.6 ng/mL (human c-Met [12]): 21900 CPM; AVG CPM, 3H-thymidine incorporation in MKN45 cells, Ab 555.6 ng/mL (human c-Met [12]): 20900 CPM; AVG CPM, 3H-thymidine incorporation in MKN45 cells, Ab 3333.3 ng/mL (human c-Met [12]): 21200 CPM; AVG CPM, 3H-thymidine incorporation in MKN45 cells, Ab 20000.0 ng/mL (human c-Met [12]): 19800 CPM; AVG A450 nm (human c-Met ECD-Fc-Flis [13]): 2.08 A450 nm; AVG A450 nm (human c-Met ECD-Fc-Flis [14]): 1.35 A450 nm
-10.4	-6.68	10.5	35	40.7	19.6	2.51	44.7	2.48	1.24	1.31	1.3	1.92	2.43	1.43	2.32	50400	41600	43300	44700	D11-8B8 (antibody, human IgG2, kappa, V domains shown, Human engineered IgG2 kappa c-Met antibody; also called Mab D11-8B8; D11-8B8 IgG2) VH: QVQLVQSGAEVKKPGSSVKVSCKASGYTFTSRYIHWVRQAPGQGLEWMGWIYPVTGDTYYIEKFKGRVTITADKSTSTAYMELSSLRSEDTAVYYCARGYGAFFYWGQGTLVTVSS VL: EIVLTQSPGTLSLSPGERATLSCSVSSSISSTNLHWYQQKPGQAPRLLIYGTSYLASGIPDRFSGSGSGTDFTLTISRLEPEDFAVYYCQQWSSYPYSFGQGTKLEIKR	AVG CPM, 3H-thymidine incorporation in MKN45 cells, Ab 15.4 ng/mL (human c-Met [12]): 24400 CPM; AVG CPM, 3H-thymidine incorporation in MKN45 cells, Ab 92.6 ng/mL (human c-Met [12]): 11100 CPM; AVG CPM, 3H-thymidine incorporation in MKN45 cells, Ab 555.6 ng/mL (human c-Met [12]): 11900 CPM; AVG CPM, 3H-thymidine incorporation in MKN45 cells, Ab 3333.3 ng/mL (human c-Met [12]): 11400 CPM; AVG CPM, 3H-thymidine incorporation in MKN45 cells, Ab 20000.0 ng/mL (human c-Met [12]): 11200 CPM; AVG A450 nm (human c-Met ECD-Fc-Flis [13]): 2.41 A450 nm; AVG A450 nm (human c-Met ECD-Fc-Flis [14]): 1.38 A450 nm
9.72	5.73	20.8	38.1	31.8	1.25	2.37	51.1	2.31	0.91	0.94	0.94	1.6	2.43	0.97	2.38	44200	41500	44000	47000	D11-C27G3 (antibody, human IgG2, kappa, V domains shown, Human engineered IgG2 kappa c-Met antibody; also called D11-27G3; D11-C27G3 IgG2) VH: QVQLVQSGAEVKKPGSSVKVSCKASGYTFTSRYIHWVRQAPGQGLEWMGWIYPVTGDTYYREPFKGRVTITADKSTSTAYMELSSLRSEDTAVYYCARGYGAFYYWGQGTLVTVSS VL: EIVLTQSPGTLSLSPGERATLSCSVSSSISSTNLHWYQQKPGQAPRLLIYGTSRLRSGIPDRFSGSGSGTDFTLTISRLEPEDFAVYYCQQWSSYPYSFGQGTKLEIKR	AVG CPM, 3H-thymidine incorporation in MKN45 cells, Ab 15.4 ng/mL (human c-Met [12]): 28700 CPM; AVG CPM, 3H-thymidine incorporation in MKN45 cells, Ab 92.6 ng/mL (human c-Met [12]): 14600 CPM; AVG CPM, 3H-thymidine incorporation in MKN45 cells, Ab 555.6 ng/mL (human c-Met [12]): 16000 CPM; AVG CPM, 3H-thymidine incorporation in MKN45 cells, Ab 3333.3 ng/mL (human c-Met [12]): 16900 CPM; AVG CPM, 3H-thymidine incorporation in MKN45 cells, Ab 20000.0 ng/mL (human c-Met [12]): 18400 CPM; AVG A450 nm (human c-Met ECD-Fc-Flis [13]): 2.27 A450 nm; AVG A450 nm (human c-Met ECD-Fc-Flis [14]): 0.89 A450 nm
